The values that follow come from the DeepSol protein solubility set.

This data set is described as follows: soluble on expression in E. coli; label from the status in PepcDB or PDB records.
Consider “MKTFESLFAELSEKAQTRPEGSLTVDELDKGTHFIGKKIIEEAGETWMAAEYEGADRTAEEMSQLLYHVQVMMIKHGLTLEDVYKHL”, for which the “soluble on expression in E. coli” value was “soluble”.

In the case of “NIDEHSLFVNVGERTNVTGSKAFARLILNGGYAEGLVIARSQVENGAQIIDINMDEAMLDSQKAMVTFLNLLAAEPDISRLPIMLDSSKWSVIEAGLKCVQGKAVINSISLKEGEAEFLHHARLARRYGAAVIVMAFDETGQADTLQRKVEICTRCYHTLIEQADFPPEDIIFDPNIFAIATGIEEHSNYAVDFIEATHVIRQTLPYAKVSGGVSNVSFSFRGNEPIREAIHTAFLYHAVKAGMTMGIVNAGQLGVYSDIPPDLLEHVEDVLLNRRPDATERLVEFAEHFKGQKKEQIE”, the “soluble on expression in E. coli” value is “not soluble”.

For the sequence “MSPSQDPSLENYRAIADGIATLFFPHAEVVLHDLRSQRVDYIANNLSKREVGDDSALEDMLEGDSDERNIGPYEKLNWDGQKIRSVSTVLRDSAGQPLAVLCINLNISLFESAKAALDLFLSPSKLIPQPDALFRDDWQERINTFLHGWLRQRQLGLNLLTREHKRELVLALHAEGAFKGKSAANYVANVLNMGRATVYKHLKELKEGGD”, the “soluble on expression in E. coli” value is reported as “not soluble”.

Consider “MMGEPARLRRLTAEEYLREEATSPVKRELVEGVPYAMAGAGRAHNLIVTNLVLLLGPLARRKGCRLYVADMKLKVGEATFYYPDLMAVCAPPPESPLYEEAPCLVVEVLSPATEGVDRREKLWRYLSLPSLEGYLLVSARERRVELYRKEGDILHQVAEEGEVPLPCLEGSLPVAEVYAGVELEGQEA”, for which the “soluble on expression in E. coli” value is recorded as “soluble”.

On to “MPETELHVIFDQPNEVFFPGQPISGRVVLSTTKEKYKARAVNIKILGLAHTSWTDYESVRRVDADGKVSHHRQSVHYSANVNYLDYTLLLWACKDGSNELAAGEYAWSFSYNLPLNVPPSFEGKYGYLRYSVTAEVDRPWRLDKAKKRCITVSPLIDLNVIPHALTQINDQASENLGCCCFKKGYLELRVNIPKTGFVPGETVPMNIHILNHSSVPVTEVKAKIIQQCKFIAYRNGTTFHYGGGYETGMSGQLQETKHDTKTVVKHGQEMTVAPRNEHKFAMELRLPSVTPTINQFSPVITVEYIVQFHVETSSTFGSDVDCEMGILIGTVPIRQFLPPAYYPQDPNLPQILPTPIGGGVVAPPPGYGFLPMADGSEKGAGDASYPAASMPMYPIPNVPYPSKDDGTVVIPSAPPLSYEESMFGQDGTELNTDENEQPFAPKYPVFNNLPVYNPTAPPPE”, for which the “soluble on expression in E. coli” value is given as “not soluble”.

Consider “MIQDETLEREVADLVISTLNLDVSPESVDPEAPLYREGLGLDSIDILEIALVVSKRYGFQLRADNEDNVLEHHHHHH”, for which the “soluble on expression in E. coli” value is listed as “not soluble”.

As for “MGSDKIHHHHHHMSNISEIVVELFKEASIYLPDDVKSKLKHAEEVECGACKDTLQAIELNNKIAETKQIPLCQDTGVPVIFLKIGTGISSERIIEIIKEIESGVKRATAEVPLRPNVVNPITRENLGTNTGMGAPFINFEFSENLNNEIEISVFPKGAGSENMSALKMLTPSEGLMGIKKFILETVANAGGKPCPPIVLGIGIGGTADISLKLAKKALLRDIGNRNPEKTIENLEKELLDSINQLGIGTMGLGGKITALDVFIEVNGCHTASLPVGICIQCWADRKAKRKIKL”, the “soluble on expression in E. coli” value is “not soluble”.

Regarding “GIDPFTMAKKDGAIEVEGRVVEPLPNAMFRIELENGHKVLAHISGKMRQHYIRILPEDRVVVELSPYDLSRGRIVYRYK”, the “soluble on expression in E. coli” value is reported as “soluble”.

On to “LLRMHESLARRQLAEVERLDLVRQVRELIGELLVDGGATLEQVAARLGMPARRLRERLAMAGVRFNDLVTDYRCRLAKE”, for which the “soluble on expression in E. coli” value is “not soluble”.

Regarding “MAHHHHHHMMSNTTSSGKGPTTFMWNSVPPSGDMPLHGCCHSLANYKDEQLILFGGGALHIIFNDVYCFDLKTSTWSYKETTNSEIVAPRISHSAVVHEDKMYVYGGQDLYMPTRFADVLVLDLITFTWSLIQQQATPAPDGPGDRRLHTAHIYRNCMYVLMGEPCNISNSFWFLDLTTLEWHPVHSSGWFGKPILPLLGHSAQVEGDYLYVFGGYHADSARRNGSPVYNNSLFSYHFPSNTWREVVPSSGPRPSPRYASAMAVIRGRVFIYGGDVDGEVYFDDFWCIDTNIPSSAASQSSSSSSYTTSLVAAPPAASSRWIDITLSCGRGRPSARSGHASAVAQGCLFVVGGELPGDRDVVYYSNRTYRYPLGYLTRLSLVELSSLWLAKCNPANIWMLDTQIPRHVRQLLVRNLNAQDRESTDDMMPCTRVVC”, the “soluble on expression in E. coli” value was “not soluble”.

“AIAYRDRYPYYDGEVYDDTGVVFPENIERRPNGRRVIVEEPEDYGMPNDRGVEDEYDERNPFRGGHSMQPWNQSPFDHFDRLFETPFAGLDRGSFGGMFGNIEQSLRRLEEDFARGAGRGNAHVYSFSSKKHFGPEGEVYEESTTTTREGNRTEVRRHLKDSAAGNEEYAWKREIDGRGREVIRRRDGSGQEVTKENYYNLTPEERAQFEQQWRTLAREGLDWRGSEGNNASLPQLSDRSSWMEHDRNEHRGGLGGFFRKLFKHD”: the “soluble on expression in E. coli” value is on record as “soluble”.

Turning to “MMNNMDSIINYIYEGDYFIVTSHISPDGDNIGSTLSMYYTLKNLGKNVYYVLDDEAPLNLRFLVEGVKIYKSNEFNMKNYSLIALDCGDKMRICVSDEIKNNASKLICIDHHASNDSYGDLNYVDIDASSTCELVYNLLVRFQQIKDINIINEDIATCLYTGLVTDTGNFSYSNVHASSFEMAKNLLVLGAQKNTIIQNIYQSNSSGYYKLLGEALKGLEIFDSKVSSIVLTQDMMNRNNISFNDVDGITTYTRDIKGIEVGILFKEKKQNEIKVSFRSKNYVDVSEIAKLFGGGGHVRAAGCTIRDSIDNAKKMVLEAVLKSI”, the “soluble on expression in E. coli” value is given as “not soluble”.

Regarding “MAHHHHHHMFYVDACSQNYRMPNSAPVFSQGFPQPNRAPSLVSPNDVQNCTNDGLVNPHQAPLFTVSQQGSVVAASVLPRTVLWTANGMYGVTQMREGPEEGATRFVPSKSPDGTPVSAMQSMFLPPMQQQQQQQQQASNCPLLYILTTVAVPQTYPQTSLQEQKSQHVTPVTHQIISMKGPSVAPSQSIGINTLNPSCITNNSDAMQTCGSGSKVNVNVVCRHFIKSCCNRRKCRFLHTLNEAPLANI”, the “soluble on expression in E. coli” value is on record as “not soluble”.

Turning to “MGSDKIHHHHHHMRAHVTKKTLSEGLGLLERVIPSRSSNPLLTALKVEASEAGLTLSGTNLEIDLSYFVPAEVQAPQSFVIPAHLFAQIVRNLGGELVELELTGGELSVRAGGSDFKLQTGDLEAYPPLSFPTHTDVSLDAAELARALGSVRYAASNEAFQAVFRGIKLEHRPASARVVASDGYRVAIRDFPASGDGRNLIVPARSADELIRVLKDGEARFTYGEGLLSVTTDRVRMNLKLLDGEFPDYERVIPKDVKLQVTLPATALKEAVGRVAVLADKNANNRVEFLVSEGKLRLAAEGDYGRAQDTLDVVQGGAEPAMSLAFNARHVLDALGPIEGDAELLFSGSTSPAIFRASGGGDYMAVMVTLRV”, the “soluble on expression in E. coli” value is “not soluble”.

Take “MGSDKIHHHHHHMNVLIVSSSEGITLSLLRCLGLLNIKSHVISVWKSSGSSRFSRFCKNYISSFITESSQGAENIADVINDYCKQQKIDIIIPSGLLGTFLVALIKEKLSYSSVFPINDADKIYNLNNKWQFYHLLRQHNIPTPKTILIETPEQIKLLNLNFPVMVKPLDRGNGYGVKKIDSIVDLHGYISNASQINNLPILVQEYVFGYDILLNVLAENGKLIAWTINRRVPYFFEFFQDENILEIAHKIIDSCNYTGVANFDIRFDERSNSVKVIECNPRFWASFGASVSYGIDFVNLGILLAQGQKLPDNLKKEVTCTEPEKIPYPSPSQFLKGLLLAKYPFAAMKKISSDLAWQSILDPLPNIYEKIWNRLGIVNTHDGVMLNKLLSNSIRVKI”: the “soluble on expression in E. coli” value is given as “not soluble”.

As to “MTGPTTDADAAVPRRVLIAEDEALIRMDLAEMLREEGYEIVGEAGDGQEAVELAELHKPDLVIMDVKMPRRDGIDAASEIASKRIAPIVVLTAFSQRDLVERARDAGAMAYLVKPFSISDLIPAIELAVSRFREITALEGEVATLSERLETRKLVERAKGLLQTKHGMTEPDAFKWIQRAAMDRRTTMKRVAEVVLETLGTPKDT”, the “soluble on expression in E. coli” value is given as “soluble”.

For the sequence “SANSGCKDVTGPDEESFLYFAYGSNLLTERIHLRNPSAAFFCVARLQDFKLDFGNSQGKTSQTWHGGIATIFQSPGDEVWGVVWKMNKSNLNSLDEQEGVKSGMYVVIEVKVATQEGKEITCRSYLMTNYESAPPSPQYKKIICMGAKENGLPLEYQEKLKAIEPNDYTGKVSEEIEDIIKKGETQTL”, the “soluble on expression in E. coli” value is reported as “soluble”.

Consider “EQELSYFAVFRRVYVQRDEVRQIASIVQRGERDHTFRVGSLIFHTIGQLLPQQMQAFHSPKALFPVGYEASRLYWSTRYANRRCRYLCSIEEKDGRPVFVIRIVEQGHEDLVLSDISPKGVWDKILEPVACVRKKSEMLQLFPAYLKGEDLFGLTVSAVARIAE”, for which the “soluble on expression in E. coli” value was “not soluble”.

“SLNFRAEDLASGILRERVKVGASLADVDPMNIDKSVRFDSIGGLSHHIHALKEMVVFPLLYPEIFEKFKIQPPRGCLFYGPPGTGKTLVARALANECSQGDKKVAFFMRKGADCLSKWVGESERQLRLLFDQAYLMRPSIIFFDEIDGLAPVRSSRQDQIHSSIVSTLLALMDGLDNRGEIVVIGATNRLDSIDPALRRPGRFDREFLFNLPDQKARKHILQIHTRDWNPKLSDAFLGELAEKCVGYCGADIKALCTEAALIALRRRYPQIYASSHKLQLDVSSIVLSAQDFYHAMQNIVPASQRAVMSSGHALSPIIRPLLERSFNNILAVLQKVFPHAEISQSDKKEDIETLILEDSEDENALSIFETNCHSGSPKKQSSSAAIHKPYLHFTMSPYHQPTSYRPRLLLSGERGSGQTSHLAPALLHTLERFSVHRLDLPALYSVSAKTPEESCAQIFREARRTVPSIVYMPHIGDWWEAVSETVRATFLTLLQDIPSFSPIFLLSTSETMYSELPEEVKCIFRIQYEEVLYIQRPIEEDRRKFFQELILNQASMAPPRRKHAALCAMEVLPLALPSPPRQLSESEKSRMEDQEENTLRELRLFLRDVTKRLATDKRFNIFSKPVDIEEVSDYLEVIKEPMDLSTVITKIDKHNYLTAKDFLKDIDLICSNALEYNPDKDPGDKIIRHRACTLKDTAHAIIAAELDPEFNKLCEEIKEARI”: the “soluble on expression in E. coli” value is on record as “soluble”.

Regarding “MSLKHVIVETEETGYQTRSRVVSVEARTIRVPLERSTAFSTRLVTARDYTVVRVTTADGHYGIGFCYSGNRAGMLVTYAVRELFAPLLLGRSALDVEGSWCAMYDESLLQGRAGSVMRALSILDIALWDRNARATGLPLSRYLGGTCSATVPAYASGGYYLEGKTPEHLGEEMAGYVALGFRAVKMKVGRLDPRSEEARIRAAREAIGDDVLLMLDANNAWSDVPTALEYMRRYEPFNPYWIEEPFSPDDIESHAQLSRRTPVTVATGEIEAGRWRHQELLDKRAALILQSDAAVCGGISEWRRIAASAAAVGVTMCPHWFHDLHVHLVASTTNARYVEFFPDDQVLNFRRLVDTQLSFADGKLTVPTRPGLGFDFDEAALNEYALDDWAEGHHHHHH”, the “soluble on expression in E. coli” value is on record as “not soluble”.

With “DTEGKAHNEQAESIELEGDRIYKITLKDGLKFSDGTPIKAENFVKTWNYAVANDQLNASFFEGIKGFKEGVKELEGLKVVDDKTFTVELDQPESDFPSRLGYSAFFALPDIAFDDMAAFGENPVSSGPYKLAEWNHNESLTIVPNEEYQGDRKAKNDGVKFVFYASQDAAYSDLLAGNLDVLDQVPDSAFATYKDELGDRAVNQPAAVFQSFTIPEKLEHFSGEEGALRRAAISHAINREEITKTIFQDTRTPAKDFSSPVVDGYKEGLKGSEVVKFDSAKAKELWAQADKISKFTGEFTIAYNSDGGHQSWVDAVANQLKNNLGIAASGKPYPDFKSLRDEVTNHTITGAFRTGWQGDYPLLGNFLQPLYATNASSNDGQYSNPAFDAKLEEAAGAKSVEEGLKLYQEAEEILFKDLPAIPLWYANVNGGSSDKVSNVTFNWKSVAAYEQITKG”, the “soluble on expression in E. coli” value was “not soluble”.
